Test results as given in patent US12064469B2, “Stable peptide compositions” (TearSolutions, Inc., priority 2017, dated 2024).
“Also recorded” adds a separate entry of the source.

Test: Comparative Lacripep stability in PBS vs citrate buffer at 60° C. by MALDI TOF mass spectrometry
Format: physicochemical
Settings: 2 weeks
Protocol: FIGS. 1A and 1B illustrate the stability of Lacripep™ (SEQ ID NO: 1) (0.001%) in phosphate buffered saline (PBS), pH 4.5 and 7.0. The Lacripep™ solutions were analyzed by MALDI TOF mass spectrometry at time 0 (FIG. 1A) and after two weeks (FIG. 1B) at 60° C.
The Lacripep™ solutions were analyzed by MALDI TOF mass spectrometry at time 0 (FIG. 2A) and after two weeks (FIG. 2B) at 60° C.
Lacripep™ (SEQ ID NO. 1) stability was assessed in PBS at pH 4.5 and 7.0 (FIG. 1) and citrate buffer at pH 6.0 and 6.5 (FIG. 2). The initial concentration of Lacripep™ was 0.001%, and each trial was run at 60° C. The stability was assessed using MALDI TOF mass spectrometry at the initiation of the experiment (week 0, FIGS. 1A and 2A) and after two weeks (week 2, FIGS. 1B and 2B).

With “Ac-Lys-Gln-Phe-Ile-Glu-Asn-Gly-Ser-Glu-Phe-Ala-Gln-Lys-Leu-Leu-Lys-Lys-Phe-Ser-NH2 (Ac-KQFIENGSEFAQKLLKKFS-NH2; listed as Homo sapiens) [Lacripep™]” as the substance, how does the “stability (Lacripep peak, MALDI TOF)” value (PBS pH 4.5, 0.001% Lacripep) read?
Its value is “significant degradation; also recorded: a degradation product becomes apparent; also recorded: An additional degradation product is seen”.

What about the “stability (Lacripep peak, MALDI TOF)” value (PBS pH 7.0, 0.001% Lacripep) of the same substance?
The value was “significant degradation; also recorded: a degradation product becomes apparent”.

What about the “stability (Lacripep peak, MALDI TOF)” value (citrate buffer pH 6.0, 0.001% Lacripep) of the same substance?
Its value is “no change in the intensity of the Lacripep™ peak”.

And the “stability (Lacripep peak, MALDI TOF)” value (citrate buffer pH 6.5, 0.001% Lacripep)?
Its value is “no change in the intensity of the Lacripep™ peak”.
